Assay results reported in article PMC5928161.

Biological target: FLAG-tagged a3 isoform of the V-ATPase a subunit (mouse) (UniProt Q9JHF5)
Test: co-immunoprecipitation (anti-FLAG IP, anti-V5 Western blot)
Conditions: HEK293T cells; intensity of V5-fused GTP-binding protein co-precipitated with a3 normalised to that of V5-Rab7

Sequence of UniProt Q9JHF5 (Q9JHF5 entry or part of it): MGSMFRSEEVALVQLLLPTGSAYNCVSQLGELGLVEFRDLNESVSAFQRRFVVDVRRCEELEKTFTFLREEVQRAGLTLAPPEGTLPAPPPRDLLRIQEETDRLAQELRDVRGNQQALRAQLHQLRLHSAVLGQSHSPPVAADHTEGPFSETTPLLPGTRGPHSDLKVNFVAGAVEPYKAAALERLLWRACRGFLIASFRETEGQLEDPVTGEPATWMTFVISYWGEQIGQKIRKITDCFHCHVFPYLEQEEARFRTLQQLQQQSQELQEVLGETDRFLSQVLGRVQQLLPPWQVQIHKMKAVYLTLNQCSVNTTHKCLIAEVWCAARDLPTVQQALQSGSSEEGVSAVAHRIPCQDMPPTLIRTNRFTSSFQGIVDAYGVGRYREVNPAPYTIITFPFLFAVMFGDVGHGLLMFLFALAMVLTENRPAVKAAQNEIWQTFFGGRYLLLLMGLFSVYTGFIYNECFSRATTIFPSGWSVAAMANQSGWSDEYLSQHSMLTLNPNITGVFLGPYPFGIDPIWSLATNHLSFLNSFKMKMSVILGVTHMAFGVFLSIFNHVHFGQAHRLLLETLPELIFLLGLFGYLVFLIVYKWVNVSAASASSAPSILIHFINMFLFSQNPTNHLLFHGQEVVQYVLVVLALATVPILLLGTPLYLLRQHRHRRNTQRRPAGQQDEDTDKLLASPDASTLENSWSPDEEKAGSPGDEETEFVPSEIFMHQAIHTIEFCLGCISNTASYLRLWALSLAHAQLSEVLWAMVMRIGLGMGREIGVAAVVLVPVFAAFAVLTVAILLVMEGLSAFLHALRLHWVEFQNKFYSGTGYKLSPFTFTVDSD

other: relative signal intensity | Substance
< 0.1 | H-Ras W D (substitution not printed)
< 0.1 | H-Ras W C (substitution not printed)
< 0.1 | Ran W C (substitution not printed)
< 0.1 | Ran W D (substitution not printed)
